Data on two compounds can be found in patent US6525022B1, “Receptor specific atrial natriuretic peptides” (Genentech, Inc., priority 1993, dated 2003).

Bridges are numbered along the chain shown (N, C = ends). Where no end group is shown, it is not given here.

Series [1] has as its target human NEP (hNEP), endopeptidase 24.11 (Homo sapiens, UniProt P08473). Description: in vitro. Conditions: Half-Life (min.).
Series [2] has as its target T1, human natriuretic peptide receptor-A expressed in 293 cells (Homo sapiens, UniProt P16066).
T1 construct: expressed in transfected cells
T1 sequence (P16066 33-1061): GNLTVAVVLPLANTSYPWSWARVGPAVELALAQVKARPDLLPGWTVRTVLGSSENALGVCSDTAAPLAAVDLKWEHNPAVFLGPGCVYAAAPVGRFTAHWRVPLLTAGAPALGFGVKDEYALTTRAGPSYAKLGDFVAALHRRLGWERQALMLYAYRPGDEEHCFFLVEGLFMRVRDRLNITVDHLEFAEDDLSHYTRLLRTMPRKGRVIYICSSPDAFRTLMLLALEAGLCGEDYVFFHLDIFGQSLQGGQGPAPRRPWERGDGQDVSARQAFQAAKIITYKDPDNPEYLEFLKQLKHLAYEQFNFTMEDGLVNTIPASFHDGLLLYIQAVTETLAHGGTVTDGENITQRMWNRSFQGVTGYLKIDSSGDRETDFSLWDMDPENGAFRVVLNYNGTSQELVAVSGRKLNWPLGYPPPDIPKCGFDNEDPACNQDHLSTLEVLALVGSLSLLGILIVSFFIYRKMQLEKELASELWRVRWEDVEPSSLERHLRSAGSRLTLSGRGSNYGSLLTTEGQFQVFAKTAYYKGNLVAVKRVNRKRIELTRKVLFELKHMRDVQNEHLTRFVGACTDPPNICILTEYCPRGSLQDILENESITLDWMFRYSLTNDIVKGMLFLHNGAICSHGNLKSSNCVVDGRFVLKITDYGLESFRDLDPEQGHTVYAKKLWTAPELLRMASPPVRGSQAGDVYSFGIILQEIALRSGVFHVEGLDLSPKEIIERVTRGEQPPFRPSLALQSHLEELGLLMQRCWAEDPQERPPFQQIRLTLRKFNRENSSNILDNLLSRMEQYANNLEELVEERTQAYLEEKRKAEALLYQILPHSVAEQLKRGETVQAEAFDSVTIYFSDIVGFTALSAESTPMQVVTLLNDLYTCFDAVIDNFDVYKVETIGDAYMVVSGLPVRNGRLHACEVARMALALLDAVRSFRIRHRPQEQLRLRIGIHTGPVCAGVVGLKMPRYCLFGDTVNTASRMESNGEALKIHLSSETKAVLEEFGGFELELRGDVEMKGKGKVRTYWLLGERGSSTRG
Description: cGMP production in 293 cells expressing hNPR-A. It is filed as cell-based. How it is done: Stable 293 cell lines were maintained in glycine free F-12/Dulbecco's minimal essential medium (50/50, v/v) with 10% dialyzed fetal calf serum, 10 mM Hepes, […] of G418 (Geneticin, GIBCO/BRL), pH 7.2, in a humidified incubator at 37° C. with 7% CO2, 93% air. Cells were passaged using 136.8 mM NaCL, 2.6 mM KCl, 7.9 mM Na2HPO4, 1.4 mM KH2PO4, pH 7.2 (PBS) with 0.5 mM EDTA. For concentration-response experiments log phase cultures of 293 cell lines were passaged to 12 well plates at a density of 2.5×10^5 cells/well. After 48 hours cultures were approximately 50% confluent, and were used for stimulation of cGMP production. Peptide treatments were carried out essentially as described by Lowe and Fendly (1992). Briefly, dried peptide aliquots were resuspended in 0.1% (v/v) acetic acid to a stock concentration of 50 μM, and diluted to 1 μM in F-12/Dulbecco's minimal essential medium (50/50, v/v) with 25 mM Hepes, 0.1% (w/v) bovine serum albumin, 0.1 mM isobutylmethylxanthine at pH 7.2 (stimulation medium). Five-fold serial dilutions were prepared in stimulation medium using polypropylene tubes, then prewarmed to 37° C. before use. Cell culture medium was aspirated prior to adding 0.5 ml of stimulation medium plus peptides to monolayer cultures for 10 minutes at 37° C. Reactions were stopped by addition of 0.5 ml of ice cold 12% trichloroacetic acid to give a final volume of 1 ml. Culture plates were frozen on dry ice and stored at −20° C. prior to assay. For cGMP measurements samples were thawed at room temperature, and processed as described by Koller et al., Science 252:120-123 (1991), for cGMP radioimmunoassay (Biomedical Technologies, Inc). All stimulations were performed in triplicate, and samples were measured in duplicate for cGMP by radioimmumoassay. Predicted peptide concentrations were corrected based on quantitative amino acid analysis of duplicate samples from the same set of peptide aliquots used for the stimulation experiments.
Data analysis. The competition binding curves and cGMP production dose responses were analyzed by the four-parameter logistic equation with the KaleidaGraph™ program (Synergy Software, PA) to obtain estimates of the IC50 or EC50 values. The non linear least-squares curve fitting program SCATPLOT was used to analyze the competition binding curves according to a one-site or two-site binding model for competitor. A two-site binding model is reported when the fit to the data was statistically better (p<0.05) than a one-site fit.

The target in another series is T2, hNPR-C (Homo sapiens, UniProt P17342).
T2 sequence (P17342 27-541): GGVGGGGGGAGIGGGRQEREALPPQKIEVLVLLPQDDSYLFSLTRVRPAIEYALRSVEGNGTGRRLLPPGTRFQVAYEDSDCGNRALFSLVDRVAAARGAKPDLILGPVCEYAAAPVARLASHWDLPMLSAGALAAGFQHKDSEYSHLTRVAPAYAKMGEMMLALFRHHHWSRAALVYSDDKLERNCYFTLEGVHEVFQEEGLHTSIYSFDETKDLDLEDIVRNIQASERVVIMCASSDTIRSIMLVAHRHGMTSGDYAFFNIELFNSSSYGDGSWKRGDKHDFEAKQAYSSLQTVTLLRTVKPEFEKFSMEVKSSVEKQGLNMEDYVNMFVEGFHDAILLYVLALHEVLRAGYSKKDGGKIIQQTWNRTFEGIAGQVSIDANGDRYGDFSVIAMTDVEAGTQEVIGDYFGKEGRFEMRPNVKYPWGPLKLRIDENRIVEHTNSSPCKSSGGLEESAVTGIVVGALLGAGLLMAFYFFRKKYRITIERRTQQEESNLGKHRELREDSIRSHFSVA
Description: Competitive binding to membranes from cells expressing human NPR-C. The arrangement: expressed in transfected cells. Conditions: FIG. 19, in comparison to rat ANP. The method, then: Membrane preparation. Stable cell lines expressing human NPR-A (Lowe and Fendly, J. Biol. Chem. 267:21691-21697 (1992)) or human NPR-C (Cunningham et al., EMBO J 13, 2508-2515 (1994)) were removed from cell culture dishes with 0.5 mM EDTA in phosphate buffered saline (PBS), placed in ice cold PBS and centrifuged at 228 g for 10 min at 4° C. The cell pellets were resuspended in ice-cold homogenization buffer (50 mM HEPES, 1 mM EDTA, 1 mM DTT, 0.25 M sucrose, 0.7 mg/mL pepstatin A, 0.5 mg/mL leupeptin and 1 mM PMSF, pH 7.4). The cells were then homogenized using a Brinkman polytron at setting 5 for 30 sec. The homogenate was centrifuged at 400×g for 10 min at 4° C. The supernatant was collected and centrifuged at 100,000×g for 30 min at 4° C. […] Protein concentrations was determined using the Biorad protein assay with IgG as a standard.
Membrane competition binding assays. […] The plates were washed six times with PBS, then air dried prior to adding scintillant and counted in a Packard Topcount scintillation counter for 1 min/well. Binding was measured in duplicate for each concentration of competitor.
Data analysis. The competition binding curves and cGMP production dose responses were analyzed by the four-parameter logistic equation with the KaleidaGraph™ program (Synergy Software, PA) to obtain estimates of the IC50 or EC50 values. […]

Chain of human NEP (hNEP), endopeptidase 24.11 (P08473 whole entry): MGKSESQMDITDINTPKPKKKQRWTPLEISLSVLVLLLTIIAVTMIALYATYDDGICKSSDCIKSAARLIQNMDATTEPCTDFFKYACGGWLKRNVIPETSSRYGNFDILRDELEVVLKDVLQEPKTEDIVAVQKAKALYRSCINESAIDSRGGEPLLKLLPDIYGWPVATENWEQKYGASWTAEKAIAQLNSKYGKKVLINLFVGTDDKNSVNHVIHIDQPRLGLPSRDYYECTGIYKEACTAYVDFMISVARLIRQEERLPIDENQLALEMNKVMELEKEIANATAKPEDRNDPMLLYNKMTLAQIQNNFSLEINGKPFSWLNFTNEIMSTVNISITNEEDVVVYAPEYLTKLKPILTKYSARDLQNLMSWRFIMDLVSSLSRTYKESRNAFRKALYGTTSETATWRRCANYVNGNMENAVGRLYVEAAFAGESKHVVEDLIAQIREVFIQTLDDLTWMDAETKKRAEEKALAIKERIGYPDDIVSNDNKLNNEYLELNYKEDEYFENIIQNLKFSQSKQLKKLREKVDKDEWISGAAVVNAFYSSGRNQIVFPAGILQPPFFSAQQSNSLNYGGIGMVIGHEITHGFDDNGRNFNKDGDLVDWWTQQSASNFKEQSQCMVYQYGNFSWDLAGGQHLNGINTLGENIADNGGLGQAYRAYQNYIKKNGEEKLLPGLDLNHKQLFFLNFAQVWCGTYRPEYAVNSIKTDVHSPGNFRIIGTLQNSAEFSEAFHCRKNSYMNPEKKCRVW

`CC[C@H](C)[C@@H]1NC(=O)[C@H](CCCNC(=N)N)NC(=O)[C@H](CC(=O)O)NC(=O)[C@H]([C@@H](C)CC)NC(=O)[C@H](CO)NC(=O)CNC(=O)[C@H]([C@@H](C)O)NC(=O)[C@H](Cc2ccccc2)NC(=O)[C@@H](N(C)C(=O)[C@H](CO)NC(=O)[C@H](CO)NC(=O)[C@H](CCCNC(=N)N)NC(=O)[C@H](CCCNC(=N)N)NC(=O)[C@H](CC(C)C)NC(=O)[C@@H](N)CO)CSSC[C@@H](C(=O)N[C@@H](CC(N)=O)C(=O)N[C@@H](CO)C(=O)N[C@@H](Cc2ccccc2)C(=O)N[C@@H](CCCNC(=N)N)C(=O)N[C@@H](Cc2ccc(O)cc2)C(=O)O)NC(=O)CNC(=O)[C@H](CC(C)C)NC(=O)CNC(=O)[C@H](CO)NC(=O)[C@H](CCC(N)=O)NC(=O)[C@H](C)NC(=O)[C@H](CCCNC(=N)N)NC1=O` [ANF 82] showed a half-life at 32 nM/ml in series [1] of 6.08 h.
With “Ser-Leu-Arg-Arg-Ser-Ser-Cys-Phe-Gly-Gly-Arg-Ile-Asp-Arg-Ile-Arg-Glu-Ala-Ser-Gly-Leu-Gly-Cys-Asn-Ser-Phe-Arg-Tyr (SEQ ID NO: 24), Cys^7-Cys^23 disulfide (SLRRSSCFGGRIDRIREASGLGCNSFRY; disulfide 7-23) [ANF 99]”, in series [2], the “Potency in cGMP production compared with rat ANP” value was “equipotent” and the “Stimulation of cGMP production (agonist efficacy)” value is on record as “efficacious”. In the series with hNPR-C, the “Binding to human NPR-C membranes, competition for 125I-rat ANP” value is given as “reduced affinity”.
